Measured values from IntAct's records for PubMed 19114660.

B1: Occludin (Homo sapiens), Q16625-1 (parent)
chain: MSSRPLESPPPYRPDEFKPNHYAPSNDIYGGEMHVRPMLSQPAYSFYPEDEILHFYKWTSPPGVIRILSMLIIVMCIAIFACVASTLAWDRGYGTSLLGGSVGYPYGGSGFGSYGSGYGYGYGYGYGYGGYTDPRAAKGFMLAMAAFCFIAALVIFVTSVIRSEMSRTRRYYLSVIIVSAILGIMVFIATIVYIMGVNPTAQSSGSLYGSQIYALCNQFYTPAATGLYVDQYLYHYCVVDPQEAIAIVLGFMIIVAFALIIFFAVKTRRKMDRYDKSNILWDKEHIYDEQPPNVEEWVKNVSAGTQDVPSPPSDYVERVDSPMAYSSNGKVNDKRFYPESSYKSTPVPEVVQELPLTSPVDDFRQPRYSSGGNFETPSKRAPAKGRAGRSKRTEQDHYETDYTTGGESCDELEEDWIREYPPITSDQQRQLYKRNFDTGLQEYKSLQSELDEINKELSRLDKELDDYREESEEYMAAADEYNRLKQVKGSADYKSKKNHCKQLKSKLSHIKKMVGDYDRQKT

Variants of: B1
Settings: with kpcl_human kpcl_human

Effect of a mutation on the interaction, decreasing interaction:
T403A
T438A
T404A
